# In doi:10.1101/2024.01.23.576890 (bioRxiv, 2024):
# Target: native OspA on the surface of live B. burgdorferi B31 (Borrelia burgdorferi strain B31 …, UniProt P0CL66)
# Experiment: flow cytometry on cells
# Chain of native OspA on the surface of live B. burgdorferi B31 (P0CL66 17-273): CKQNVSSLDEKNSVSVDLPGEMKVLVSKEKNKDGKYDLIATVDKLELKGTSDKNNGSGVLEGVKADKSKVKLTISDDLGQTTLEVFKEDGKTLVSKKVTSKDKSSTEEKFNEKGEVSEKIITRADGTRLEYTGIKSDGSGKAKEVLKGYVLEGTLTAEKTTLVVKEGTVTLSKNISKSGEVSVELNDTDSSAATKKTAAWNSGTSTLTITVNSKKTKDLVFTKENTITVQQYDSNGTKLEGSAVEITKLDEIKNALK
binder,measurement,value
"LA-2 (bin 3 OspA monoclonal antibody; chimeric LA-2 IgG1) (antibody, V domains shown) VH: QIQLVQSGPELKKPGETVKISCKASGYTFTDYSMYWVKQAPGKGLKRMGWINTETGEPTYADDFKGRFALSLDTSASTAYLHISNLKNEDTATYFCARGLDSWGQGTSVTVSS VL: DIQMTQSPSSLSATLGGKVTITCKASQDINKYIAWYQHKPGKGPRLLIHYTSTLQPGNPSRFSGSGSGRDYSFSISNLEAEDIAIYYCLQYDNLQRTFGGGTKVEIK",binding result,binds
